Assay results taken from patent publication US20220177564A1 (Ablynx, published 2022).
Several values for one entry are separate records, joined by “and”; a condition that tells them apart may be missing. Equal entries are not always repeated. Each block holds one binder with its values, some of them ahead of it.

Tests used:
hIL13-Fc [1] = biological target: T1, hIL13-Fc (human, UniProt P35225 25-146); experiment: competition ELISA; hIL13-Fc to coated IL13Rα2
T1 construct: not shown: Fc part and any linker not described

human IL-13 [2] = biological target: T2, human IL-13 (human, UniProt P35225 35-146, limits assumed); experiment: cell-based or functional assay
hIL13-Fc [3] = biological target: T1, hIL13-Fc; experiment: SPR (ProteOn XPR36), periplasmic extract over immobilised Fc fusion
cyno IL13-Fc [4] = biological target: T3, cyno IL13-Fc (cynomolgus monkey, UniProt Q0PW92 11-132); experiment: as above
T3 construct: not shown: Fc part and any linker not described

hIL13-Fc [5] = biological target: T1, hIL13-Fc; experiment: SPR; * measured on hIL-13-Fc (same values as Table 9)
human IL-13 [6] = biological target: T2, human IL-13; experiment: AlphaScreen, purified ISVD; hIL-13 to hIL-13Rα1-hFc
hIL13-Fc [7] = biological target: T1, hIL13-Fc; experiment: SPR (BIAcore T100), hIL13-Fc immobilised on CM5; heterogeneous ligand fit, major interaction
human IL-13 [8] = biological target: T2, human IL-13; experiment: AlphaScreen, purified ISVD; hIL-13:hIL-13Rα1:hIL4Rα ternary complex
cyno IL13-Fc [9] = biological target: T3, cyno IL13-Fc; experiment: SPR (BIAcore T100), cyno IL13-Fc immobilised on CM5; heterogeneous ligand fit, major interaction
human TSLP [10] = biological target: T4, human TSLP (human, UniProt Q969D9 29-159); experiment: SPR, hTSLP
T4 construct: also called hTSLP; hTSP

hTSLP-Fc [11] = biological target: T5, hTSLP-Fc (human, UniProt Q969D9 29-159); experiment: SPR (ProteOn XPR36), periplasmic extract over immobilised Fc fusion
T5 construct: also called hTSLP-hFc; hTLSP-Fc; not shown: human Fc part and any linker not described

cyno TSLP-Fc [12] = biological target: T6, cyno TSLP-Fc (cynomolgus monkey, UniProt A0A7N9CAT7 29-159); experiment: as above
T6 construct: also called cyno TSLP-hFc; not shown: human Fc part and any linker not described

human TSLP [13] = biological target: T4, human TSLP; experiment: AlphaScreen, purified ISVD; hTSLP to hTSLPR
human TSLP [14] = biological target: T4, human TSLP; experiment: AlphaScreen, purified ISVD; hTSLP:hTSLPR:hIL7Rα ternary complex
hTSLP-Fc [15] = biological target: T5, hTSLP-Fc; experiment: SPR (BIAcore T100), Fc fusion captured by anti-huIgG
cyno TSLP-Fc [16] = biological target: T6, cyno TSLP-Fc; experiment: as above
cyno TSLP [17] = biological target: T7, cyno TSLP (cynomolgus monkey, UniProt A0A7N9CAT7 29-159); experiment: SPR, cyno TSLP
T7 construct: also called cynomolgus monkey TSLP

cyno TSLP-Fc [18] = biological target: T6, cyno TSLP-Fc; experiment: SPR, cyno TSLP-hFc (same value as Table 10)
hTSLP-Fc [19] = biological target: T5, hTSLP-Fc; experiment: SPR, hTSLP-hFc (same value as Table 10)
hIL13-Fc [20] = biological target: T1, hIL13-Fc; experiment: competition ELISA; soluble IL-13Rα2 as positive control against coated IL13Rα2
human IL4 = biological target: T8, human IL4 (human, UniProt P05112 25-153); experiment: SPR (ProteOn XPR36), cytokine immobilised by amine coupling
T8 construct: also called human 1L4
T8 sequence (looked up): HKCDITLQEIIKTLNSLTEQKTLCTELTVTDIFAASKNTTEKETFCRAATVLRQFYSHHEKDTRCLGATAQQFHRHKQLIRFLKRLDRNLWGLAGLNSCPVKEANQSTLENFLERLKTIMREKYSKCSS

human IL7 = biological target: T9, human IL7 (human, UniProt P13232 26-177); experiment: as above
T9 construct: also called 1L7
T9 sequence (looked up): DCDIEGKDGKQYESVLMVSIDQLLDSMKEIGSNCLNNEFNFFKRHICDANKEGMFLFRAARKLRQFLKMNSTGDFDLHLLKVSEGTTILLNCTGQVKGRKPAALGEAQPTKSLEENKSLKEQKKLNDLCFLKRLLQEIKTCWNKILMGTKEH

short form of TSLP = short form of TSLP (UniProt Q969D9-2 1-63, limits assumed); experiment: SPR (ProteOn), short form of TSLP immobilised
cyno IL-13 [21] = biological target: T10, cyno IL-13 (cynomolgus monkey, UniProt Q0PW92 21-132); experiment: cell-based or functional assay
human IL-13 [22] = biological target: T2, human IL-13; experiment: cell-based or functional assay; remark: listed apart in the source
human TSLP [23] = biological target: T4, human TSLP; experiment: cell-based or functional assay
rhesus IL-13 [24] = biological target: T11, rhesus IL-13 (rhesus monkey, UniProt Q864V6 19-132, limits assumed); experiment: cell-based or functional assay
cyno IL-13 [25] = biological target: T10, cyno IL-13; experiment: cell-based or functional assay; remark: listed apart in the source
human IL-13 [26] = biological target: T2, human IL-13; experiment: cell-based or functional assay; remark: listed apart in the source
mouse serum albumin = biological target: T12, mouse serum albumin (mouse, UniProt P07724 25-608); experiment: Gyrolab in-solution affinity, 2 h incubation
T12 construct: also called SA (mouse)

cyno serum albumin = biological target: T13, cyno serum albumin (cynomolgus monkey); experiment: Gyrolab in-solution affinity, 2 h incubation
T13 construct: also called SA (cynomolgus monkey)

human serum albumin = biological target: T14, human serum albumin (human, UniProt P02768 25-609); experiment: Gyrolab in-solution affinity, 2 h incubation
T14 construct: also called HSA; SA (human)

rhesus IL-13 [27] = biological target: T11, rhesus IL-13; experiment: Gyrolab in-solution affinity, 72 h incubation
human TSLP [28] = biological target: T4, human TSLP; experiment: Gyrolab in-solution affinity, 72 h incubation
cyno IL-13 [29] = biological target: T10, cyno IL-13; experiment: Gyrolab in-solution affinity, 72 h incubation
cyno TSLP [30] = biological target: T7, cyno TSLP; experiment: Gyrolab in-solution affinity, 72 h incubation
human IL-13 [31] = biological target: T2, human IL-13; experiment: Gyrolab in-solution affinity, 72 h incubation
human TSLP [32] = biological target: T4, human TSLP; experiment: Gyrolab in-solution affinity, 48 h incubation
cyno IL-13 [33] = biological target: T10, cyno IL-13; experiment: Gyrolab in-solution affinity, 48 h incubation
cyno TSLP [34] = biological target: T7, cyno TSLP; experiment: Gyrolab in-solution affinity, 48 h incubation
human IL-13 [35] = biological target: T2, human IL-13; experiment: Gyrolab in-solution affinity, 48 h incubation
human TSLP [36] = biological target: T4, human TSLP; experiment: cell-based or functional assay; remark: listed apart in the source
cyno TSLP [37] = biological target: T7, cyno TSLP; experiment: cell-based or functional assay

B1: F0107004B02 (VHH)
VHH: EVQLVESGGGLVQAGGSLRLSCAASGRTFSSYRMGWFRQAPGKEREFVAALSGDGYSTYTANSVNSRFTISRDNAKNTVYLQMNSLKPEDTAIYYCAAKLQYVSGWSYDYPYWGQGTLVTVSS
notes: Wild-type anti-IL-13 ISVD; also called F010704B02; F107004B02; not shown: c-myc, His6 tag of the purified protein
- IC50 (hIL13-Fc [1]): 49 nM
- IC50, IL-13-induced TF-1 proliferation assay (human IL-13 [2]): 27 nM
- koff (hIL13-Fc [3]): 0.0017 s⁻¹
- koff (cyno IL13-Fc [4]): 0.0011 s⁻¹
- Kd (hIL13-Fc [5]): 1100 nM
- koff (hIL13-Fc [5]): 0.024 s⁻¹
- kon (hIL13-Fc [5]): 22000 M⁻¹ s⁻¹
- IC50 (human IL-13 [6]): 4 nM
- Kd (hIL13-Fc [7]): 1100 nM
- koff (hIL13-Fc [7]): 0.024 s⁻¹
- kon (hIL13-Fc [7]): 22000 M⁻¹ s⁻¹
- IC50 (human IL-13 [8]): 1.7 nM
- Kd (cyno IL13-Fc [9]): 1900 nM
- koff (cyno IL13-Fc [9]): 0.034 s⁻¹
- kon (cyno IL13-Fc [9]): 18000 M⁻¹ s⁻¹

B2: F0107529F10 (VHH)
VHH: EVQLVESGGGLVQAGGSLRLSCAASGFTFADYDYDIGWFRQAPGKEREGVSCISNRDGSTYYTDSVKGRFTISSDNAKNTVSLQMNSLKPEDTAVYYCAVEIHCDDYGVENFDFDPWGQGTLVTVSS
notes: Wild-type anti-TSLP ISVD; also called F107529F10; not shown: c-myc, His6 tag of the purified protein
- koff (human TSLP [10]): 6.6e-05 s⁻¹
- koff (hTSLP-Fc [11]): < 5e-05 s⁻¹
- koff (cyno TSLP-Fc [12]): 0.0018 s⁻¹
- IC50 (human TSLP [13]): 0.013 nM
- IC50 (human TSLP [14]): 0.18 nM
- Kd (hTSLP-Fc [15]): 0.035 nM
- koff (hTSLP-Fc [15]): 0.00042 s⁻¹
- kon (hTSLP-Fc [15]): 1.2e+07 M⁻¹ s⁻¹
- Kd (cyno TSLP-Fc [16]): 1.7 nM
- koff (cyno TSLP-Fc [16]): 0.0015 s⁻¹
- kon (cyno TSLP-Fc [16]): 870000 M⁻¹ s⁻¹
- koff (cyno TSLP [17]): 0.0018 s⁻¹
- Kd (cyno TSLP-Fc [18]): 1.7 nM
- Kd (hTSLP-Fc [19]): 0.035 nM

The remaining lines, values ahead:

- IC50 (hIL13-Fc [20]): 7.9 nM
B3: IL13Rα2 (receptor, UniProt Q14627 27-343, looked up)
chain: DTEIKVNPPQDFEIVDPGYLGYLYLQWQPPLSLDHFKECTVEYELKYRNIGSETWKTIITKNLHYKDGFDLNKGIEAKIHTLLPWQCTNGSEVQSSWAETTYWISPQGIPETKVQDMDCVYYNWQYLLCSWKPGIGVLLDTNYNLFYWYEGLDHALQCVDYIKADGQNIGCRFPYLEASDYKDFYICVNGSSENKPIRSSYFTFQLQNIVKPLPPVYLTFTRESSCEIKLKWSIPLGPIPARCFDYEIEIREDDTTLVTATVENETYTLKTTNETRQLCFVVRSKVNIYCSDDGIWSEWSDKQCWEGEDLSKKTLLR
notes: Coated on the plate and also titrated in solution as positive control compound

- binding result (human IL4): no binding (tested: 1 µM)
- binding result (human IL7): no binding (tested: 1 µM)
- binding result (short form of TSLP): no binding (tested: 500 nM)
- IC50, SEAP reporter assay (HEK-Blue IL-4/IL-13 cells) (cyno IL-13 [21]): 0.0534 nM
- IC50, SEAP reporter assay (HEK-Blue IL-4/IL-13 cells) (human IL-13 [22]): 0.0328 nM
- mean IC50, TSLP-induced CCL17 production in human DCs (human TSLP [23]): 0.0533 nM
- eotaxin release assay (IC50, pM) (rhesus IL-13 [24]): 713 pM
- eotaxin release assay (IC50, pM) (cyno IL-13 [25]): 1040 pM
- eotaxin release assay (IC50, pM) (human IL-13 [26]): 194 pM
- Kd (mouse serum albumin): 1.8 nM
- Kd (cyno serum albumin): 0.198 nM and 0.133 nM and 0.145 nM
- Kd (human serum albumin): 0.119 nM and 0.11 nM and 0.145 nM
- Kd (rhesus IL-13 [27]): 0.0015 nM
- Kd (human TSLP [28]): 0.001 nM
- Kd (cyno IL-13 [29]): 0.0035 nM
- Kd (cyno TSLP [30]): 0.059 nM
- Kd (human IL-13 [31]): 0.0047 nM
- Kd (human TSLP [32]): 0.0018 nM and 0.0023 nM
- Kd (cyno IL-13 [33]): 0.0038 nM and 0.0015 nM
- Kd (cyno TSLP [34]): 0.0559 nM and 0.044 nM
- Kd (human IL-13 [35]): 0.0042 nM and 0.0063 nM
- BaF3 proliferation assay (IC50, pM) (human TSLP [36]): 7.8 pM
- BaF3 proliferation assay (IC50, pM) (cyno TSLP [37]): 24 pM
B4: F027400161 (other)
chain: DVQLVESGGGVVQPGGSLRLSCAASGRTFSSYRMGWFRQAPGKEREFVAALSGDGYSTYTANSVKGRFTISRDNSKNTVYLQMNSLRPEDTALYYCAAKLQYVSGWSYDYPYWGQGTLVTVSSGGGGSGGGGSGGGGSGGGGSGGGGSGGGGSGGGGSEVQLVESGGGVVQPGGSLRLSCAASGFTFNNYAMKWVRQAPGKGLEWVSSITTGGGSTDYADSVKGRFTISRDNSKNTLYLQMNSLRPEDTALYYCANVPFGYYSEHFSGLSFDYRGQGTLVTVSSGGGGSGGGSEVQLVESGGGVVQPGGSLRLSCAASGSGFGVNILYWYRQAAGIERELIASITSGGITNYVDSVKGRFTISRDNSENTMYLQMNSLRAEDTGLYYCASRNIFDGTTEWGQGTLVTVSSGGGGSGGGSEVQLVESGGGVVQPGGSLRLSCAASGFTFRSFGMSWVRQAPGKGPEWVSSISGSGSDTLYADSVKGRFTISRDNSKNTLYLQMNSLRPEDTALYYCTIGGSLSRSSQGTLVTVSSGGGGSGGGSEVQLVESGGGVVQPGGSLRLSCAASGFTFADYDYDIGWFRQAPGKEREGVSCISNRDGSTYYADSVKGRFTISRDNSKNTVYLQMNSLRPEDTALYYCAVEIHCDDYGVENFDFDPWGQGTLVTVSSA
notes: Pentavalent trispecific ISVD construct (two anti-IL-13 VHHs, two anti-TSLP VHHs, one anti-albumin VHH), Pichia pastoris, purified by Protein A; also called F027100161
